In patent US20210292396A1 (INTERNATIONAL AIDS VACCINE INITIATIVE, published 2021):

Experiments:
Assay in all cases: cell-based or functional assay
[1] = target: HIV Env of isolate R2184.c04 (HIV)
[2] = target: HIV Env of isolate 0260.v5.c36 (HIV)
[3] = target: HIV Env of isolate 0815.v3.c3 (HIV)
[4] = target: HIV Env of isolate A07412M1.vrc12 (HIV)
[5] = target: HIV Env of isolate 62357_14_D3_4589 (HIV)
[6] = target: HIV Env of isolate Ce703010054_2A2 (HIV)
[7] = target: HIV Env of isolate WITO4160.33 (HIV)
[8] = target: HIV Env of isolate T257-31 (HIV)
[9] = target: HIV Env of isolate ZM247v1(Rev-) (HIV)
[10] = target: HIV Env of isolate Ce2060_G9 (HIV)
[11] = target: HIV Env of isolate 1394C9G1(Rev-) (HIV)
[12] = target: HIV Env of isolate REJO4541.67 (HIV)
[13] = target: HIV Env of isolate 249M_B10 (HIV)
[14] = target: HIV Env of isolate C4118.c09 (HIV)
HIV Env of isolate CNE58 = HIV Env of isolate CNE58 (HIV)
[15] = target: HIV Env of isolate 6240_08_TA5_4622 (HIV)
[16] = target: HIV Env of isolate TRO.11 (HIV)
HIV Env of isolate CNE52 = HIV Env of isolate CNE52 (HIV)
[17] = target: HIV Env of isolate Du422.1 (HIV)
[18] = target: HIV Env of isolate T278-50 (HIV)
[19] = target: HIV Env of isolate 6952.v1.c20 (HIV)
[20] = target: HIV Env of isolate TRJO4551.58 (HIV)
[21] = target: HIV Env of isolate BJOX025000.01.1 (HIV)
[22] = target: HIV Env of isolate 231965.c01 (HIV)
[23] = target: HIV Env of isolate 1054_07_TC4_1499 (HIV)
[24] = target: HIV Env of isolate 0330.v4.c3 (HIV)
[25] = target: HIV Env of isolate HIV-16055-2.3 (HIV)
HIV Env of isolate CNE53 = HIV Env of isolate CNE53 (HIV)
HIV Env of isolate CNE21 = HIV Env of isolate CNE21 (HIV)
[26] = target: HIV Env of isolate P1981_C5_3 (HIV)
[27] = target: HIV Env of isolate 6811.v7.c18 (HIV)
[28] = target: HIV Env of isolate HIV-001428-2.42 (HIV)
[29] = target: HIV Env of isolate BJOX010000.06.2 (HIV)
[30] = target: HIV Env of isolate Q461.e2 (HIV)
[31] = target: HIV Env of isolate BJOX009000.02.4 (HIV)
[32] = target: HIV Env of isolate 6480.v4.c25 (HIV)
[33] = target: HIV Env of isolate T255-34 (HIV)
[34] = target: HIV Env of isolate 620345.c01 (HIV)
[35] = target: HIV Env of isolate SC05_8C11_2344 (HIV)
[36] = target: HIV Env of isolate ZM53M.PB12 (HIV)
[37] = target: HIV Env of isolate Du172.17 (HIV)
HIV Env of isolate CNE5 = HIV Env of isolate CNE5 (HIV)
[38] = target: HIV Env of isolate Q23.17 (HIV)
[39] = target: HIV Env of isolate 235-47 (HIV)
HIV Env of isolate 263-8 = HIV Env of isolate 263-8 (HIV)

B1: PGT-121 (antibody, V domains shown)
VH: QMQLQESGPGLVKPSETLSLTCSVSGASISDSYWSWIRRSPGKGLEWIGYVHKSGDTNYSPSLKSRVNLSLDTSKNQVSLSLVAATAADSGKYYCARTLHGRRIYGIVAFNEWFTYFYMDVWGNGTQVTVSS
VL: SDISVAPGETARISCGEKSLGSRAVQWYQHRAGQAPSLIIYNNQDRPSGIPERFSGSPDSPFGTTATLTITSVEAGDEADYYCHIWDSRVPTKWVFGGGTTLTVLG
[1]
  neutralization IC50: > 50 µg/mL
[2]
  neutralization IC50: 0.053 µg/mL
[3]
  neutralization IC50: 0.025 µg/mL
[4]
  neutralization IC50: 0.009 µg/mL
[5]
  neutralization IC50: 2.6 µg/mL
[6]
  neutralization IC50: > 50 µg/mL
[7]
  neutralization IC50: 0.334 µg/mL
[8]
  neutralization IC50: > 50 µg/mL
[9]
  neutralization IC50: 0.028 µg/mL
[10]
  neutralization IC50: > 50 µg/mL
[11]
  neutralization IC50: 0.264 µg/mL
[12]
  neutralization IC50: 4.77 µg/mL
[13]
  neutralization IC50: > 50 µg/mL
[14]
  neutralization IC50: > 50 µg/mL
HIV Env of isolate CNE58
  neutralization IC50: > 50 µg/mL
[15]
  neutralization IC50: 0.033 µg/mL
[16]
  neutralization IC50: 0.005 µg/mL
HIV Env of isolate CNE52
  neutralization IC50: 2.05 µg/mL
[17]
  neutralization IC50: 0.039 µg/mL
[18]
  neutralization IC50: > 50 µg/mL
[19]
  neutralization IC50: 0.056 µg/mL
[20]
  neutralization IC50: 1.31 µg/mL
[21]
  neutralization IC50: > 50 µg/mL
[22]
  neutralization IC50: > 50 µg/mL
[23]
  neutralization IC50: 0.064 µg/mL
[24]
  neutralization IC50: 0.05 µg/mL
[25]
  neutralization IC50: 0.153 µg/mL
HIV Env of isolate CNE53
  neutralization IC50: 0.007 µg/mL
HIV Env of isolate CNE21
  neutralization IC50: 0.007 µg/mL
[26]
  neutralization IC50: 0.001 µg/mL
[27]
  neutralization IC50: 0.001 µg/mL
[28]
  neutralization IC50: 0.014 µg/mL
[29]
  neutralization IC50: > 50 µg/mL
[30]
  neutralization IC50: > 50 µg/mL
[31]
  neutralization IC50: 2.86 µg/mL
[32]
  neutralization IC50: 0.001 µg/mL
[33]
  neutralization IC50: 18.7 µg/mL
[34]
  neutralization IC50: > 50 µg/mL
[35]
  neutralization IC50: 0.019 µg/mL
[36]
  neutralization IC50: 0.001 µg/mL
[37]
  neutralization IC50: 0.033 µg/mL
HIV Env of isolate CNE5
  neutralization IC50: > 50 µg/mL
[38]
  neutralization IC50: 0.001 µg/mL
[39]
  neutralization IC50: 0.137 µg/mL
HIV Env of isolate 263-8
  neutralization IC50: 0.648 µg/mL

B2: ePGT121.15.H1.L1 (antibody, V domains shown)
VH: QMQLQESGPGLVKPGETLSLTCSVSGASISSSYWSWLRETPGKGLEWIGYTHHSGDTNYAPSLKSRVHLGLHPSKNQVSLSLTSVTAADTAVYYCARTLHGRRIYGVVAFNEWFTYFYWEVWGNGTQVTVSS
VL: SDISVAPGETVRISCGGESIGSRAVQWYQHRAGQAPKLIIYNNQDRPPGIPERFSGSPDIDFGTTATLTITNVEAGDEATYYCHIWDSRRPTNWVFGGGTTLTVL
[1]
  neutralization IC50: > 50 µg/mL
[2]
  neutralization IC50: 0.004 µg/mL
[3]
  neutralization IC50: 0.0017 µg/mL
[4]
  neutralization IC50: 0.0022 µg/mL
[5]
  neutralization IC50: 0.004 µg/mL
[6]
  neutralization IC50: > 50 µg/mL
[7]
  neutralization IC50: 0.0011 µg/mL
[8]
  neutralization IC50: > 50 µg/mL
[9]
  neutralization IC50: 0.0003 µg/mL
[10]
  neutralization IC50: > 50 µg/mL
[11]
  neutralization IC50: 0.0004 µg/mL
[12]
  neutralization IC50: 3.17 µg/mL
[13]
  neutralization IC50: 0.0022 µg/mL
[14]
  neutralization IC50: > 50 µg/mL
HIV Env of isolate CNE58
  neutralization IC50: 0.0025 µg/mL
[15]
  neutralization IC50: 0.0022 µg/mL
[16]
  neutralization IC50: 0.0001 µg/mL
HIV Env of isolate CNE52
  neutralization IC50: 0.0203 µg/mL
[17]
  neutralization IC50: 0.0007 µg/mL
[18]
  neutralization IC50: 0.0124 µg/mL
[19]
  neutralization IC50: 0.0009 µg/mL
[20]
  neutralization IC50: 0.0005 µg/mL
[21]
  neutralization IC50: > 50 µg/mL
[22]
  neutralization IC50: > 50 µg/mL
[23]
  neutralization IC50: 0.0001 µg/mL
[24]
  neutralization IC50: 0.0015 µg/mL
[25]
  neutralization IC50: 0.0003 µg/mL
HIV Env of isolate CNE53
  neutralization IC50: 0.001 µg/mL
HIV Env of isolate CNE21
  neutralization IC50: 0.0001 µg/mL
[26]
  neutralization IC50: 0.0014 µg/mL
[27]
  neutralization IC50: 0.0012 µg/mL
[28]
  neutralization IC50: 0.0001 µg/mL
[29]
  neutralization IC50: > 50 µg/mL
[30]
  neutralization IC50: > 50 µg/mL
[31]
  neutralization IC50: 0.0046 µg/mL
[32]
  neutralization IC50: 0.0012 µg/mL
[33]
  neutralization IC50: 0.0221 µg/mL
[34]
  neutralization IC50: > 50 µg/mL
[35]
  neutralization IC50: 0.0009 µg/mL
[36]
  neutralization IC50: 0.0006 µg/mL
[37]
  neutralization IC50: 0.0002 µg/mL
HIV Env of isolate CNE5
  neutralization IC50: 15.8 µg/mL
[38]
  neutralization IC50: 0.0004 µg/mL
[39]
  neutralization IC50: 0.0019 µg/mL
HIV Env of isolate 263-8
  neutralization IC50: 0.0044 µg/mL
